Laboratory results as given in publication PMC4555817.

Molecular target: GST-tagged full-length cortactin (UniProt Q60598)
Assay: pull-down

Chain of UniProt Q60598 (Q60598 whole entry): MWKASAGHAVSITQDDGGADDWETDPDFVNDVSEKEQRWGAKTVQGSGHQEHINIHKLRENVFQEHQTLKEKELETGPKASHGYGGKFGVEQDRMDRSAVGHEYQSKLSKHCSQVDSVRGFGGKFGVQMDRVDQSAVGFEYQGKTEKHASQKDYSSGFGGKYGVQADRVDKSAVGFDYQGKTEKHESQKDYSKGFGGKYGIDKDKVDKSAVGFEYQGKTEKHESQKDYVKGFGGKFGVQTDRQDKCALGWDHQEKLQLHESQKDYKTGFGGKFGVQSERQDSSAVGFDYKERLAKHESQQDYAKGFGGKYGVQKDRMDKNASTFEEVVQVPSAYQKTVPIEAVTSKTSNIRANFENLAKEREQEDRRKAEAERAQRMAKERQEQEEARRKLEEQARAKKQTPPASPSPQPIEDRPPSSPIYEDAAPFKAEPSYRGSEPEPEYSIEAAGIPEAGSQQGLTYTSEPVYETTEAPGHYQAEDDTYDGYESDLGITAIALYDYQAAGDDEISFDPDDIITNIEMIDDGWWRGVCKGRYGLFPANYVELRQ

“actin filaments (from UniProt P68139 1-377) (natural protein)” showed a Ki of 461 nM.
